This test addresses T1, Mouse ST2 (mouse, UniProt P14719 27-332, limits assumed).
T1 construct: also called mouse ST2 protein
T1 sequence (looked up): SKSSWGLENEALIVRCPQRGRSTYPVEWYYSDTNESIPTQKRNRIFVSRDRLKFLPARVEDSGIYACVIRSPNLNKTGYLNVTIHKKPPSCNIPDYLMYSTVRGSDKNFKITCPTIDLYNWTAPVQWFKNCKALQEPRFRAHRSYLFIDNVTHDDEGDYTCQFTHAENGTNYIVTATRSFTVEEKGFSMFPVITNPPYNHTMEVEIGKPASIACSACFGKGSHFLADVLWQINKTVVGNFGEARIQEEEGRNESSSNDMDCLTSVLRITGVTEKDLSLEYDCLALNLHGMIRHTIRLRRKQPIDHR
Briefly: SPR (Carterra), antibody immobilized, ST2 analyte, 1:1. How it is done:
Binding of the reformatted human ST2 antibodies to the human and mouse ST2 proteins was evaluated by surface plasmon resonance (SPR), using a high throughput antibody screening and characterization platform from Carterra (Salt Lake City, Utah).

Residue numbers refer to the chain shown, from its start.

B1: Human ST2 IgG1 Antibody 63 (antibody, V domains shown)
VH: QVQLVQSGAEVKKPGSSVKVSCKASGGTFSSDAINWVRQAPGQGLEWMGGIVPAFGTANYAQKFQGRVTITADESTSTAYMELSSLRSEDTAVYYCARSSSSWPYYYYYMDVWGKGTTVTVSS
VL: DIVMTQSPLSLPVTPGEPASISCRSSQSLLLNNGNNFIDWYLQKPGQSPQLLIYAASILQGGVPDRFSGSGSGTDFTLKISRVEAEDVGVYYCMQALQTPPTFGQGTKVEIKR
notes: IgG1, kappa; also called ST2 Antibody 63
In general, Kd refers to a measure of binding affinity in units of concentration. A lower Kd goes with higher affinity. As usually defined, the koff is a measure of how fast the partners let go of each other. A lower koff goes with slow dissociation. Broadly, the kon is the second-order rate constant of association. For B1, the Kd was 2400 nM, the koff turned out to be 0.15 s⁻¹ and the on-rate (kon) came out at 62000 M⁻¹ s⁻¹.

B2: Human ST2 IgG1 Antibody 30 (antibody, V domains shown)
VH: QVQLVQSGAEVKKPGSSVKVSCKASGYTFTTYGITWVRQAPGQGLEWMGGIIPIFGTANYAQKFQGRVTITADESTSTAYMELSSLRSEDTAVYYCAKLSGSSGSWDYYYYYGMDVWGQGTLVTVSS
VL: DIVMTQSPLSLPVTPGEPASISCRSSQSLLHSNGYNYLDWYLQKPGQSPQLLIYAASNLQSGVPDRFSGSGSGTDFTLKISRVEAEDVGVYYCMQALQTPITFGQSTRLEIKR
notes: IgG1, kappa; also called ST2 Antibody 30
Molecule B2 registered a Kd of 2700 nM, a koff of 0.13 s⁻¹ and a kon of 48000 M⁻¹ s⁻¹.

B3: Human ST2 IgG1 Antibody 54 (antibody, V domains shown)
VH: EVQLLESGGGLVQPGGSLRLSCAASGFTVSSNYMSWVRQAPGKGLEWVSAISGSGGSTYYADSVKGRFTISRDNSKNTLYLQMNSLRAEDTAVYYCARGRFGSRDVWGKGTTVTVSS
VL: not shown
notes: IgG1, kappa; also called ST2 Antibody 54
The molecule B3 returned a Kd of 2700 nM, a koff of 0.13 s⁻¹ and a kon of 50000 M⁻¹ s⁻¹.

B4: Human ST2 IgG1 Antibody 39 (antibody, V domains shown)
VH: QVQLVQSGAEVKKPGSSVKVSCKASGYTFTSYYMQWVRQAPGQGLEWMGGIIPIFGTANYAQKFQGRVTITADESTSTAYMELSSLRSEDTAVYYCARARFGAVDYWGQGTLVTVSS
VL: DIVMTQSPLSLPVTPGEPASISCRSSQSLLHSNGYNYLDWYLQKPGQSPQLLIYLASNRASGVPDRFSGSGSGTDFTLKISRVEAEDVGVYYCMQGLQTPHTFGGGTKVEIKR
notes: IgG1, kappa; also called ST2 Antibody 39
For B4, the dissociation constant (Kd) was 3400 nM, the koff came to 0.14 s⁻¹ and the kon was 42000 M⁻¹ s⁻¹.

B5: Human ST2 IgG1 Antibody 38 (antibody, V domains shown)
VH: QVQLVQSGAEVKKPGSSVKVSCKASGGTFSSYAISWVRQAPGQGLEWMGTIIPMFGIADYAQKFQGRVTITADESTSTAYMELSSLRSEDTAVYYCARSSRSSSWYNWYFDLWGRGTLVTVSS
VL: EIVMTQSPATLSVSPGERATLSCRASQSISSSYLAWYQQKPGQAPRLLIYGASTRATGIPARFSGSGSGTEFTLTISSLQSEDFAVYYCQQYYTTPWTFGQGTKVEIKR
notes: IgG1, kappa; also called ST2 Antibody 38
B5 displayed a Kd of 529 nM, a koff of 0.09 s⁻¹ and a kon of 170000 M⁻¹ s⁻¹.

B6: Human ST2 IgG1 Antibody 45 (antibody, V domains shown)
VH: QVQLVQSGAEVKKPGSSVKVSCKASGGTFSSYAISWVRQAPGQGLEWMGGIVPIFETANYAQKFQGRVTITADESTSTAYMELSSLRSEDTAVYYCARDTPNFDYWGQGTLVTVSS
VL: not shown
notes: IgG1, kappa; also called ST2 Antibody 45
As for B6, the Kd was determined as 1400 nM, the koff came out at 0.13 s⁻¹ and the kon turned out to be 95000 M⁻¹ s⁻¹.

B7: Human ST2 IgG1 Antibody 52 (antibody, V domains shown)
VH: QVQLVQSGAEVKKPGSSVKVSCKASGGTFSNYAISWVRQAPGQGLEWMGWISAYNGNTNYAQKFQGRVTITADESTSTAYMELSSLRSEDTAVYYCARLSTVTTRPYYYYGMDVWGQGTTVTVSS
VL: DIVMTQSPLSLPVTPGEPASISCRSSQSLLHSNGYNYLDWYLQKPGQSPQLLIYAASSLQGGVPDRFSGSGSGTDFTLKISRVEAEDVGVYYCMQGTHWPTFGQGTKVEIKR
notes: IgG1, kappa; also called ST2 Antibody 52
B7 registered a Kd of 2700 nM, a koff of 0.16 s⁻¹ and a kon of 59000 M⁻¹ s⁻¹.

B8: Human ST2 IgG1 Antibody 41 (antibody, V domains shown)
VH: QVQLVQSGAEVKKPGSSVKVSCKASGYTFTDYQMHWVRQAPGQGLEWVGVINPGGGSTTYAQTFQGRVTITADESTSTAYMELSSLRSEDTAVYYCARGGVEYSSSWDYYYYYGMDVWGQGTTVTVSS
VL: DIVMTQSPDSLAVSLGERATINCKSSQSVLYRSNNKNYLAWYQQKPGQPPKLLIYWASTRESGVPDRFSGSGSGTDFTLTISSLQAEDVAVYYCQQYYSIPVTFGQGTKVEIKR
notes: IgG1, kappa; also called ST2 Antibody 41
Molecule B8 displayed a Kd of 845 nM, a koff of 0.11 s⁻¹ and a kon of 140000 M⁻¹ s⁻¹.

B9: Human ST2 IgG1 Antibody 25 (antibody, V domains shown)
VH: QVQLVQSGAEVKKPGSSVKVSCKASGGTFSNYAISWVRQAPGQGLEWMGWISAYNGNTNYAQKFQGRVTMTRDTSTSTVYMELSSLRSEDTAVYYCARSTNALDYWGQGTLVTVSS
VL: DIQMTQSPSSLSASVGDRVTITCRASQGIRSNLDWYQQKPGKAPKLLISIVSNLGSGVPSRFSGSGSGTDFTLTISSLQPEDFATYYCLQHNSNPPTFGGGTKVEIKR
notes: IgG1, kappa; also called ST2 Antibody 25
As for B9, the Kd was determined as 322 nM, the koff amounted to 0.064 s⁻¹ and the kon is 200000 M⁻¹ s⁻¹.

B10: Human ST2 IgG1 Antibody 34 (antibody, V domains shown)
VH: QVQLVQSGAEVKKPGASVKVSCKASGQTFTDYAINWVRQAPGQGLEWMGWMNPNSGNTGYAQKFQGRVTMTRDTSTSTVYMELSSLRSEDTAVYYCARETLEQQLPFDYWGQGTLVTVSS
VL: DIQMTQSPSSLSASVGDRVTITCRASQSISSWLAWYQQKPGKAPKLLIYAASTLQSGVPSRFSGSGSGTDFTLTISSLQPEDFATYYCQQYYSTLYTFGQGTKVEIKR
notes: IgG1, kappa; also called ST2 Antibody 34
On to B10, for which the Kd is 126 nM, the koff amounted to 0.0019 s⁻¹ and the kon is 15000 M⁻¹ s⁻¹.

B11: Human ST2 IgG1 Antibody 44 (antibody, V domains shown)
VH: EVQLLESGGGLVKPGGSLRLSCAASGFTFSSYWMSWVRQAPGKGLEWVSAISGTAINTYYADSVKGRFTISRDDSKNTLYLQMNSLKTEDTAVYYCARVRRDSSGGGAFDIWGQGTMVTVSS
VL: B10 VL with S28G, S31N, W32N, A34N, T53S, S56T, Y91S, L95P, Y96P
notes: IgG1, kappa; also called ST2 Antibody 44
Take B11: binding was characterised by a dissociation constant (Kd) of 999 nM, the koff was determined as 0.11 s⁻¹ and the kon came to 110000 M⁻¹ s⁻¹.

B12: Human ST2 IgG1 Antibody 57 (antibody, V domains shown)
VH: QVQLVQSGAEVKKPGASVKVSCKASGYTFTGYYMHWVRQAPGQGLEWMGVINPSGGSTSYAQKFQGRVTMTRDTSTSTVYMELSSLRSEDTAVYYCARGDYYYGSGSDYYYYYGMDVWGQGTLVTVSS
VL: B10 VL with S28G, I29V, S30T, Y91A, Y92N, T94F, L95P, Y96L, Q100G
notes: IgG1, kappa; also called ST2 Antibody 57
B12 displayed a Kd of 3100 nM, a koff of 0.16 s⁻¹ and a kon of 51000 M⁻¹ s⁻¹.

B13: Human ST2 IgG1 Antibody 35 (antibody, V domains shown)
VH: QVQLVQSGAEVKKPGASVKVSCKASAYTFTSYGISWLRQAPGQGLEWMGWINPNSGNTGYAHKFQGRVTMTRDTSTSTVYMELSSLRSEDTAVYYCARGGSGWPTWGQGTLVTVSS
VL: DIQMTQSPSSLSASVGDRVTITCQASQDISNYLNWYQQKPGKAPKLLIYGASSLQSGVPSRFSGSGSGTDFTLTISSLQPEDFATYYCQQANTFPFTFGPGTKVDIKR
notes: IgG1, kappa; also called ST2 Antibody 35
The molecule B13 registered a Kd of 107 nM, a koff of 0.018 s⁻¹ and a kon of 170000 M⁻¹ s⁻¹.

B14: Human ST2 IgG1 Antibody 49 (antibody, V domains shown)
VH: QVQLVQSGAEVKKPGASVKVSCKASGGTLSSYAISWVRQAPGQGLEWMGGISPYNGKANYAEKLQGRVTMTRDTSTSTVYMELSSLRSEDTAVYYCAIRSIAAREGVYYYYMDVWGKGTTVTVSS
VL: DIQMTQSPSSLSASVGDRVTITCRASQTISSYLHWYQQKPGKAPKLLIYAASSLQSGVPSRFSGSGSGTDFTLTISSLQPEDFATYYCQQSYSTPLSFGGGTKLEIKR
notes: IgG1, kappa; also called ST2 Antibody 49
B14 gave a Kd of 436 nM, a koff of 0.12 s⁻¹ and a kon of 270000 M⁻¹ s⁻¹.

B15: Human ST2 IgG1 Antibody 29 (antibody, V domains shown)
VH: QVQLVQSGAEVKKPGASVKVSCKASGGTFTGYFIHWVRQAPGQGLEWMGWMNPNSGNTGYAQKFQGRVTMTRDTSTSTVYMELSSLRSEDTAMYYCAREGQGVVPVDYWGQGTLVTVSS
VL: DIQMTQSPSSLSASVGDRVTITCRASQSISSWLAWYQQKPGKAPKLLIYDATNLETGVPSRFSGSGSGTDFTLTISSLQPEDFATYYCLQDYNYPLTFGQSTKVEIKR
notes: IgG1, kappa; also called ST2 Antibody 29
Molecule B15 came in with a Kd of 751 nM, a koff of 0.0045 s⁻¹ and a kon of 5900 M⁻¹ s⁻¹.

For the origin of these results see patent US20210403579A1 (DELINIA, published 2021).
